Assay results: patent US20060078622A1, “Pharmaceutical formulations containing microparticles or nanoparticles of a delivery agent” (priority 2004, published 2006)
Where “and” joins values, the source holds several entries; their conditions need not be identical. Equal values may be shown once. Read-outs that look alike come from different tables or passages of the source.

Tests used:
[1] = Insulin and 4-CNAB stability in simulated gastric fluid (HPLC); settings: 37° C.
Description: The SGF was prepared with and without pepsin, a gastric enzyme. SGF pH 1.2 was prepared as per the USP NF 26 guidelines. 2 g sodium chloride and 3.2 g of pepsin were weighed and added to a suitable container, and deionized water was added to reach one liter in volume. If necessary, the pH was adjusted to 1.2 by addition of concentrated HCl or NaOH. A second SGF solution omitting the pepsin was also prepared.
Four 50 ml samples of SGF (two with pepsin and two without) were placed into a jacketed vessel connected to a circulating water bath set at 37° C. The solutions were stirred with magnetic stir bars for ten minutes to allow the solutions to reach 37° C. and reach thermal equilibrium.
The term “% of theoretical” as used herein, means the percent of the concentration (mg/mL) of withdrawn solution at the time-point the sample was taken as compared to the theoretical concentration (mg/mL) of the measuring component for experiment. The standard of deviation for the HPLC analysis is ±5%.

[2] = Stability of insulin in simulated intestinal fluid (HPLC); settings: for stability of insulin / Insulin % of theoretical: 37° C.
Description: The SIF solutions were prepared with and without pancreatic enzyme. SIF pH 7.5 was prepared as per the USP NF 26 guidelines. SIF was prepared by addition of 6.8 g monobasic potassium phosphate and 10 g of pancreatin into a suitable vessel, and deionized water was added to reach a total volume of one liter. If necessary, the pH was adjusted to 7.5 by addition of 0.2 N sodium hydroxide. A second SIF solution omitting the pancreatin, an intestinal enzyme, was also prepared.
Four 50 ml samples of SIF (two with pancreatin and two without) were placed into a jacketed vessel connected to a circulating water bath set at 37° C. The solutions were stirred with magnetic stir bars for ten minutes to allow the solutions to reach 37° C. and reach thermal equilibrium.

[3] = IV
Text: (§1) This value was assumed to be constant in the estimates of absolute bioavailability.

[4] = Text: as §1
(§2) The portal bioavailability provides an estimate of drug absorption from oral delivery. […] This value is used to estimate bioavailability relative to subcutaneous.

[5] = Estimates of bioavailability (absolute, portal, relative to subcutaneous)
Text: as §1, §2

[6] = dose 8 μg/kg, individual animals
[7] = dose 9 μg/kg, individual animals

What does the source list for Insulin: Recombinant human zinc insulin?
insulin degraded ([1]; SGF containing pepsin, first sampling point): 97%; insulin remained ([1]; SGF containing pepsin, first sampling point (0 minutes)): 3.0%; Insulin % of theoretical ([1]; SGF no enzymes, with 4-CNAB, 30 minutes): 105.7%; Insulin % of theoretical ([1]; SGF no enzymes, with 4-CNAB, 24 h): 0%; Insulin % of theoretical ([1]; SGF with pepsin, with 4-CNAB, 0 minutes): 3.0%; Insulin % of theoretical ([1]; SGF with pepsin, without 4-CNAB, 0 minutes): 3.0%; Insulin % of theoretical ([1]; SGF without enzymes, without 4-CNAB, 10 minutes): 100.4%; Insulin % of theoretical ([1]; SGF without enzymes, without 4-CNAB, 30 minutes): 100.1%; Insulin % of theoretical ([1]; SGF without enzymes, without 4-CNAB, 1 h): 99.4%; Insulin % of theoretical ([1]; SGF without enzymes, without 4-CNAB, 24 h): 0%; time insulin is stable ([1]; SGF without pepsin): ≥ 2 h; stability of insulin ([2]; SIF in presence of the enzyme (pancreatin)): degrades; Insulin % of theoretical ([2]; SIF no enzymes, with 4-CNAB, 0 minutes): 100.2%; Insulin % of theoretical ([2]; SIF no enzymes, with 4-CNAB, 4 minutes): 106.3%; Insulin % of theoretical ([2]; SIF no enzymes, with 4-CNAB, 45 minutes): 99.1%; Insulin % of theoretical ([2]; SIF no enzymes, with 4-CNAB, 24 hours): 105.6%; Insulin % of theoretical ([2]; SIF with pancreatin, with 4-CNAB, 0 minutes): 58.9%; Insulin % of theoretical ([2]; SIF with pancreatin, with 4-CNAB, 4 minutes): 19.3%; Insulin % of theoretical ([2]; SIF with pancreatin, with 4-CNAB, 6 minutes): 5.4%; Insulin % of theoretical ([2]; SIF without 4-CNAB or enzymes, 0 minutes): 92.9%; Insulin % of theoretical ([2]; SIF without 4-CNAB or enzymes, 15 minutes): 92.7%; Insulin % of theoretical ([2]; SIF without 4-CNAB or enzymes, 1 hour): 92.7%; Insulin % of theoretical ([2]; SIF without 4-CNAB or enzymes, 2 hours): 94.6%; Insulin % of theoretical ([2]; SIF without 4-CNAB or enzymes, 24 hours): 100.4%; stability of insulin ([2]; SIF without pancreatin): stable; insulin remained ([2]; SIF, first sampling time point (0 minutes)): 58.9% and 66.9%; AUC0->∞ ([3]; dose 8 μg/kg, X ± SD (n = 3)): 100.7 ± 2.4 ng·min/mL; AUC0->∞/Dose ([3]; dose 8 μg/kg, X ± SD (n = 3)): 0.0126 ± 0.0003 kg·min/mL; Vd ([3]; dose 8 μg/kg, X ± SD (n = 3)): 0.157 ± 0.005 L/kg; AUC0->∞ [3, 6]: 99.35 ng·min/mL and 99.32 ng·min/mL and 103.4 ng·min/mL; C0->∞/Dose [3, 6]: 0.0063 kg/mL and 0.0066 kg/mL and 0.0062 kg/mL; Co [3, 6]: 50.67 ng/mL and 52.64 ng/mL and 49.63 ng/mL; Vd [3, 6]: 0.15788 L/kg and 0.15198 L/kg and 0.16119 L/kg; kel [3, 6]: 0.51 min⁻¹ and 0.53 min⁻¹ and 0.48 min⁻¹; AUC0->∞ ([3]; dose 9 μg/kg, X ± SD (n = 3)): 99.4 ± 23.6 ng·min/mL; AUC0->∞/Dose ([3]; dose 9 μg/kg, X ± SD (n = 3)): 0.0110 ± 0.0026 kg·min/mL; Co ([3]; dose 9 μg/kg, X ± SD (n = 3)): 46.1 ± 9.5 ng/mL; Vd ([3]; dose 9 μg/kg, X ± SD (n = 3)): 0.201 ± 0.043 L/kg; kel ([3]; dose 9 μg/kg, X ± SD (n = 3)): 0.47 ± 0.02 min⁻¹; AUC0->∞ [3, 7]: 99.55 ng·min/mL and 75.67 ng·min/mL and 122.89 ng·min/mL; C0->∞/Dose [3, 7]: 0.0052 kg/mL and 0.0040 kg/mL and 0.0061 kg/mL; Co [3, 7]: 46.79 ng/mL and 36.32 ng/mL and 55.30 ng/mL; Vd [3, 7]: 0.19235 L/kg and 0.2478 L/kg and 0.16275 L/kg; kel [3, 7]: 0.47 min⁻¹ and 0.48 min⁻¹ and 0.45 min⁻¹; AUC0->∞/Dose ([3]; dose […], X ± SD (n = 5)): 0.0062 ± 0.0011 kg·min/mL; Vd ([3]; dose […], X ± SD (n = 5)): 0.219 ± 0.068 L/kg; C0->∞/Dose ([3]; Average over all doses (2.5, 8, 9 μg/kg)): 0.0053 kg/mL; AUC0->T/Dose ([4]; SC (subcutaneous) dosing, average): 0.0052 kg·min/mL; Avg AUC0->T/Dose ([4]; SC, average of studies 1-8): 0.005159 kg·min/mL; AUC0->T/Dose ([4]; SC, study 1, […]): 0.005601 kg·min/mL; AUC0->T/Dose ([4]; SC, study 2, […]): 0.006514 kg·min/mL; AUC0->T/Dose ([4]; SC, study 3, 0.05 mg/kg): 0.005562 kg·min/mL; Insulin ([4]; SC, study 3, 0.05 mg/kg, time 0): 1.51 uU/ml; Insulin ([4]; SC, study 3, 0.05 mg/kg, time 15): 98.85 uU/ml; Insulin ([4]; SC, study 3, 0.05 mg/kg, time 30): 73.59 uU/ml; Insulin ([4]; SC, study 3, 0.05 mg/kg, time 45): 61.37 uU/ml; Insulin ([4]; SC, study 3, 0.05 mg/kg, time 60): 58.20 uU/ml; Insulin ([4]; SC, study 3, 0.05 mg/kg, time 120): 21.34 uU/ml; Insulin ([4]; SC, study 3, 0.05 mg/kg, time 180): 8.30 uU/ml; AUC0->T/Dose ([4]; SC, study 4, 0.05 mg/kg): 0.004929 kg·min/mL; Insulin ([4]; SC, study 4, 0.05 mg/kg, time 0): 0.37 uU/ml; Insulin ([4]; SC, study 4, 0.05 mg/kg, time 15): 103.42 uU/ml; Insulin ([4]; SC, study 4, 0.05 mg/kg, time 30): 81.64 uU/ml; Insulin ([4]; SC, study 4, 0.05 mg/kg, time 45): 68.91 uU/ml; Insulin ([4]; SC, study 4, 0.05 mg/kg, time 60): 58.58 uU/ml; Insulin ([4]; SC, study 4, 0.05 mg/kg, time 90): 32.01 uU/ml; Insulin ([4]; SC, study 4, 0.05 mg/kg, time 120): 21.15 uU/ml; AUC0->T/Dose ([4]; SC, study 5, 0.05 mg/kg): 0.001013 kg·min/mL; Insulin ([4]; SC, study 5, 0.05 mg/kg, time 0): 0 uU/ml; Insulin ([4]; SC, study 5, 0.05 mg/kg, time 15): 34.90 uU/ml; Insulin ([4]; SC, study 5, 0.05 mg/kg, time 30): 9.71 uU/ml; Insulin ([4]; SC, study 5, 0.05 mg/kg, time 45): 16.57 uU/ml; Insulin ([4]; SC, study 5, 0.05 mg/kg, time 60): 10.46 uU/ml; Insulin ([4]; SC, study 5, 0.05 mg/kg, time 90): 2.94 uU/ml; Insulin ([4]; SC, study 5, 0.05 mg/kg, time 120): 5.05 uU/ml; AUC0->T/Dose ([4]; SC, study 6, 0.05 mg/kg): 0.007644 kg·min/mL; Insulin ([4]; SC, study 6, 0.05 mg/kg, time 15): 191.67 uU/ml; Insulin ([4]; SC, study 6, 0.05 mg/kg, time 30): 119.71 uU/ml; Insulin ([4]; SC, study 6, 0.05 mg/kg, time 45): 121.33 uU/ml; Insulin ([4]; SC, study 6, 0.05 mg/kg, time 60): 74.65 uU/ml; Insulin ([4]; SC, study 6, 0.05 mg/kg, time 90): 42.88 uU/ml; Insulin ([4]; SC, study 6, 0.05 mg/kg, time 120): 25.65 uU/ml; AUC0->T/Dose ([4]; SC, study 7, 0.05 mg/kg): 0.005932 kg·min/mL; Tmax ([4]; SC, study 7, 0.05 mg/kg): 30 min; Insulin ([4]; SC, study 7, 0.05 mg/kg, time 0): 5.85 uU/ml; Insulin ([4]; SC, study 7, 0.05 mg/kg, time 15): 90.29 uU/ml; Insulin ([4]; SC, study 7, 0.05 mg/kg, time 30): 125.96 uU/ml; Insulin ([4]; SC, study 7, 0.05 mg/kg, time 45): 67.83 uU/ml; Insulin ([4]; SC, study 7, 0.05 mg/kg, time 60): 78.19 uU/ml; Insulin ([4]; SC, study 7, 0.05 mg/kg, time 90): 45.77 uU/ml; Insulin ([4]; SC, study 7, 0.05 mg/kg, time 120): 18.24 uU/ml; AUC0->T/Dose ([4]; SC, study 8, 0.05 mg/kg): 0.004079 kg·min/mL; Insulin ([4]; SC, study 8, 0.05 mg/kg, time 15): 131.71 uU/ml; Insulin ([4]; SC, study 8, 0.05 mg/kg, time 30): 70.90 uU/ml; Insulin ([4]; SC, study 8, 0.05 mg/kg, time 45): 66.28 uU/ml; Insulin ([4]; SC, study 8, 0.05 mg/kg, time 60): 0.59 uU/ml; Insulin ([4]; SC, study 8, 0.05 mg/kg, time 90): 33.96 uU/ml; Insulin ([4]; SC, study 8, 0.05 mg/kg, time 120): 14.64 uU/ml; FPE (fH) ([4]; individual animals n 1-5): 0.18; AUC-IP ([4]; intraportal administration, Average): 9.65; average insulin AUC0→t/Dose ([4]; subcutaneous dosing): 0.00516 kg·min/mL; AUC-JV ([4]; systemic administration, Average): 15.53; BA ([5]; SC (subcutaneous) dosing): 55.67%; absolute bioavailability ([5]; SC administration, rat model): approximately 56%; maximum absolute bioavailability of insulin ([5]; from oral delivery or any other 100% GI absorption into the portal vein, from intraportal results, rat model): approximately 60%
